Non-standard residues stand in square brackets, D forms with d. Primed or numbered codes have the meaning given here. No end group written: not given here. 2‑aminophenyl pentanoic acid = 2-Aminophenyl pentanoic acid; Hyp = O=C(O)[C@@H]1C[C@@H](O)CN1; NMeI = CC[C@H](C)[C@H](NC)C(=O)O; hArg = N=C(N)NCCCC[C@H](N)C(=O)O; Cit = NC(=O)NCCC[C@H](N)C(=O)O; Nle = CCCC[C@H](N)C(=O)O; Aib = CC(C)(N)C(=O)O
Experiments:
recombinant human PCSK9 = molecular target: T1, recombinant human PCSK9 (Homo sapiens, UniProt Q8NBP7); assay: Affinity of new peptides for recombinant human PCSK9 by surface plasmon resonance (Biacore T200); type: binding; conditions: SPR, 25° C.
T1 construct: His; purchased BPS Biosciences
T1 sequence (Q8NBP7 153-692): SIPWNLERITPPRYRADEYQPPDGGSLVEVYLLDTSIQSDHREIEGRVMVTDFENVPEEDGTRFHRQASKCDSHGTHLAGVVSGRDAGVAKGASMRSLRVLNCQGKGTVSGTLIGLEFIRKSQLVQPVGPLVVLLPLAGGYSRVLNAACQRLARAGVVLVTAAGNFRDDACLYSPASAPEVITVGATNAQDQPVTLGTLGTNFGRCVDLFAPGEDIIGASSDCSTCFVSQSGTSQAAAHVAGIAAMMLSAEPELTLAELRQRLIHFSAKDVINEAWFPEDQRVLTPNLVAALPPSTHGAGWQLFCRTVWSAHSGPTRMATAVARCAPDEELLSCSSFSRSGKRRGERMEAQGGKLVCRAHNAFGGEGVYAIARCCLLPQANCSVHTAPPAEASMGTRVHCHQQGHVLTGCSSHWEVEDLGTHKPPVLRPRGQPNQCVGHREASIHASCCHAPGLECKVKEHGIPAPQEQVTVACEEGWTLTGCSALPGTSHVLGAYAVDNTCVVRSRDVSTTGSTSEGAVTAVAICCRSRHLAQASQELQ
Method: (§1) Affinity parameters of new peptides for recombinant human PCSK9 were analyzed by surface plasmon resonance (SPR), using a Biacore instrument (Biacore T200, GE Healthcare). SPR experiments were performed at 25° C. with a BIACORE T200 apparatus (GE Healthcare, Uppsala, Sweden).
(§2) Purified recombinant human PCSK9 (His-tagged, BPS Biosciences) diluted to 100-150 μg/mL in 10 mM acetate buffer, pH 5.0, was immobilized on one of the four flow cells of a Series S Sensor Chip CMS to a level of approximately 6000 to 8000 RU (resonance units) by the use of amine-coupling chemistry. The surface was blocked with 1M ethanolamine, pH 8.5. Whereas one flow cell was immobilized as blank for reference subtraction (no PCSK9). 10 mM Hepes (pH 7.4) with 150 mM NaCl was used as running buffer. The rest two flow cells were saved for future use.
(§3) 100× Stock solutions of NCE (new peptides) were made in 100% DMSO and were diluted to range of concentrations in 10 mM Hepes, pH7.4+150 mM NaCl so that the final conc of DMSO is kept at 1%. Binding/Kinetics studies were conducted by passing various concentrations of NCEs over blank as well as ligand (protein) immobilized surface. Each cycle consisted of a 60 s or 120 s analyte (diluted small molecule drug) injection at flow rate with between 5 to 30 μL/min (the association phase), followed by a dissociation phase with between 60 to 180 s. If required, regeneration was done using a 30 s (15 μL) injection of 10 mM glycine/HCl (pH 1.5) and 20 s or 30 s (10 or 15 μL) injection of 10 mM NaOH. The data were analyzed using the Biacore T200 Evaluation software. All the curves were reference-subtracted. Baselines were adjusted to zero for all curves and data were presented as binding RU (Average of 5 s window) 5 s before end of sample injection.
For KD (equilibrium dissociation constant) determinations analyte curves were subtracted from buffer blank and modeled assuming a simple 1:1 interaction to generate the kinetic data.

PCSK9 = assay: Immunogenicity study in BALB/c mice: anti-PCSK-9 ELISA antibody titers in serum; type: in vivo, mouse; conditions: peptide formulations, in words
Method: (§4) Female BALB/c mice of 12-15 weeks of age issued from animal house and kept for […]. Mice had access to food and water ad libitum and were kept under a 12 hrs light/dark cycle. On Day-0 (pre-treatment) animals bled and serum was harvested for total cholesterol measurement. Animals were randomized and grouped to various treatments based on their total cholesterol and body weights. On next day of Day-0 (pre-treatment) blood collection animals were immunised with 0.3 ml of vaccine formulations as mentioned Table No. 1 by subcutaneous or intramuscular route. Next booster injection was given on 2 weeks and 4 weeks after first injection and animals were bled for immunogenicity measurement on two weeks thereafter till week 7 and then every four week till 32 week, detailed schedule of blood collection was Day-0 (pre-treatment) from there 5th, 7th, 20th, 24th, 28th, 32nd, 45th and 57th week after first vaccine administration. Serum was separated and serum total cholesterol was measured and immunogenicity or antibody confirmation was done using ELISA for PCSK9 antibody titer, binding of serum antibodies with human PCSK9 using Surface plasmon resonance (SPR) assay and LDLR-PCSK9 interaction inhibition assay.
At specific intervals of time (15 days post immunization with each booster), serum samples were collected from all groups of mice. 96-well ELISA plates (#442402) were pre-coated with PCSK-9 protein 50 ng/well and plate incubated overnight at 2-8° C. Next day, wells were washed to remove unbound protein and blocked in 2% skimmed milk-PB ST for 2 hours, and washed with PBST. Sera samples were diluted 1:20 with 0.2% skimmed milk made in PBST. Appropriate volume of samples and standards was added to each well, and incubated for 1 hour at 37° C. Anti-mouse IgG secondary HRP-labeled antibody was added to each well and incubated at 37° C. for 1 hour, then washed. […] Plates were read at 492 nm on a Spectramax microplate reader. […] By using the negative control value, cut-off value was calculated and the corrected OD's above the cut off value were treated as […]. […]

LDLR-PCSK9 interaction = LDLR-PCSK9 interaction inhibition assay with serum from vaccine treated animals (PCSK9[Biotinylated]-LDLR Binding Assay Kit); type: biochemical; conditions: peptide formulations, week 5, in words
Method: as §4
Inhibition of LDLR-PCSK9 interaction by antibody (Ab) in serum from vaccine treated animal were assayed using BPS Bioscience in-vitro PCSK9[Biotinylated]-LDLR Binding Assay Kit (BPS Bioscience, San Diego, Calif., USA) with minor modifications. First, LDLR ectodomain is coated on a 96-well plate and plate was incubated overnight. Next, PCSK9-biotin was diluted in 1×PCSK9 assay buffer to obtain 2.5 ng/μl (50 ng/20 μl) concentration and this master mix, test inhibitor (serum samples from animal studies), inhibitor buffer was added to LDL-R coated plate and incubated at room temperature for 2 hours. Finally, the plate is treated with streptavidin-HRP followed by addition of an HRP substrate to produce chemiluminescence, which was then measured using a chemiluminescence reader according to the manufacturer's instructions. […]

human PCSK9 = assay: Serum antibody detection by affinity determination against human PCSK9 using SPR assay; type: binding
Method: as §1, §2
as §3, with “Baselines were adjusted to zero for all curves and data were presented as binding RU (Average of 5 s window) 5 s before end of sample injection.” left out
Female BALB/c mice of 12-15 weeks of age issued from animal house and kept for 2-3 acclimatization. […] Serum was separated and serum total cholesterol was measured and immunogenicity or antibody confirmation was done using ELISA for PCSK9 antibody titer, binding of serum antibodies with human PCSK9 using Surface plasmon resonance (SPR) assay and LDLR-PCSK9 interaction inhibition assay.

| Substance | Binding - Response Unit(RU) (recombinant human PCSK9; peptide 50 μM) | Binding - Response Unit(RU) (recombinant human PCSK9; peptide 100 μM) | antibody titers against human PCSK9 as compared to Seq.ID.No.1 (PCSK9) | LDLR-PCSK9 interaction inhibition compared with Seq. ID No.1 (LDLR-PCSK9 interaction) | antibody response (SPR) as compared to Seq.ID.No. 1 (human PCSK9; week 5, in words) | antibody response (SPR) as compared to Seq.ID.No. 1 (human PCSK9; week-57, in words) |
| --- | --- | --- | --- | --- | --- | --- |
| 6 (SIPWNLE[hArg]ITPC) [compound 6] | 6.55 RU | 17.50 RU |  |  |  |  |
| 5 (SIPWNLER[Aib]TPC) [compound 5] | 2.30 RU | 7.10 RU |  |  |  |  |
| 14 ([Aib]IPWNLERITPC) [compound 14] | 7.10 RU | 15.00 RU |  |  |  |  |
| SI-Hyp-WNLERITPC (SI[Hyp]WNLERITPC) [Seq. ID. No. 8] |  |  | higher | significantly higher | significantly higher antibody response |  |
| 8 (SI[Hyp]WNLERITPC) [compound 8] | 5.70 RU | 13.25 RU |  |  |  |  |
| 13 (SIPWNLERI[Aib]PC) [compound 13] | 9.75 RU | 37.35 RU |  |  |  |  |
| 1 (SIPWNLERITPC; PCSK9) [compound 1] | 7.4 RU |  |  |  |  |  |
| SIPWN-Nle-ERITPC (SIPWN[Nle]ERITPC) [Seq. ID. No. 7] |  |  | higher | significantly higher |  |  |
| 4 (SIPWNLER[Nle]TPC) [compound 4] | 13.05 RU | 30.00 RU |  |  |  |  |
| 18 (SIP[2‑aminophenyl pentanoic acid]NLERITPC) [compound 18] | 10.20 RU | 17.85 RU |  |  |  |  |
| 15 (S[NMeI]IPWNLERITPC) [compound 15] | 11.45 RU | 29.85 RU |  |  |  |  |
| 7 (SIPWN[Nle]ERITPC) [compound 7] | 6.65 RU | 16.00 RU |  |  |  |  |
| 10 (SIPWN[Aib]ERITPC) [compound 10] | 3.00 RU | 7.50 RU |  |  |  |  |
| SIPWNLE-Cit-ITPC (SIPWNLE[Cit]ITPC) [Seq. ID. No. 12] |  |  | higher | significantly higher | significantly higher antibody response | significantly higher antibody response |
| 19 (SIP[(S)‑2‑amino‑3‑(2′-ethyl-4′-methoxy-(1,1′-biphenyl)-4-yl)propanoic acid]NLERITPC) [compound 19] | 35.15 RU | 85.90 RU |  |  |  |  |
| 12 (SIPWNLE[Cit]ITPC) [compound 12] | 3.10 RU | 6.70 RU |  |  |  |  |

— patent US11325945B2, “Peptide based PCSK9 vaccine” (CADILA HEALTHCARE LIMITED, priority 2017, dated 2022)
